Measurements: patent publication US20240026407A1, “MODIFICATION OF SAPONINS” (GLAXOSMITHKLINE BIOLOGICALS SA, priority 2020, published 2024)

B1: 837 (protein, listed as Bifidobacterium magnum)
chain: MTDNLTIGVTEANELSVKEQASLTSGQDAWHLQGIPSKGIPGYMITDGPHGLRKTTAGNGDEMNLDRSVPATCFPPAAGLSSSWNPQLVREVGEAMGEECVQEKVAVILGPGVNIKRNPLGGRNFEYWSEDPYLAGHEAAGIVDGVQSKGVGASLKHFAVNNQETDRFRVSALVSERALREIYLPAFEYIVKHSRPWTVMCSYNKINGVYSSENHWLLTDVLRKEWGFDGIVMSDWGADHNRVAALNAGLNLEMPPSGTDEQVVQGVENGTLKREQLETMAQAMIDLAHKAEDAMNQDGYRYNVDDHNNTARRAARESMVLLKNEEHVLPVKEQDHIAVIGEFARTPRYQGSGSSRINPTRLTSFLDAAQERGVSLTFAPGYTLDQSPADTQLEQEAVDAAAQADTVLMFMGLPDYDESEGFDRTTLAMPAKQLELLGKVTAANKRVVVILSNGSAVTMTPWNESVPAILETWLLGQAGGVALADIVFGDVSPSGRLAQTIPVELTDDPSTINWPGEEHHVNYGEGVFVGYRYYDTFHKPVAYPFGFGLGYADFAIDEVQVRATGVHAAQVRAKVTNLSQDTAASHVVQVYVRPVEPKVPGEASEHVARPVHELKGFAKVYLEPGQSDTVTIDLDERAFAYWSEEFHDWRIEGGEYGIEVGSSSRDIAATVPVTIAGDGKRKPLTVWNTLDEWRKDPVGKAVAGELMAKLREQGADFTGGDTSTEIFMNTLPINSLTALMGPQGNQVEDFLLGEYARRTQ
B2: 830 (protein)
chain: MGTAHDLEQLIAGLTLEEKIALLAGDSLWTVPGIPRLGIRPLKVSDGPAGVRGSRIVPAAAFPAPVLLGATWDPELVERVGQALAEEAETKGAQVVLAPTINLQRTALGGRNFECFSEDPHLTARLAVAYVRGLQSRGIGACIKHYVANDQEFERHTVSVEVDERTLREVYLFPFAVAVAEADPWCVMAAYNRVGGIYCSEHPWLLTTILREELGYQGVVMSDWFATHSTIEALQAGLDLEMPGPPQWRGDKLREAVERGEVALEVIERSARRVLMLYQRAGRFAPGPETSEERAVDRPEHRALIREVGASGMVLLRNEGILPLDLSTVKRVAVIGPHVRRPAVGGGGSAFVRSHPVVTPLEALRESAPQCEFLVEEGAAIFKLIPPLEGEALGSEGAELAFFANPELAGAPVATIRVRTTDLIWLGEVAPGVDASAFSARLRVTMRPEESGRYVLGATAVGQVRVHLDGTLVLDNWTAPQPGRTYFGFGSAEVRAAVDLEAERAYEIVVEYRKFQPGLPLAGFRFGVVHELSDEERIARSVRAAQQADLALLFVGLSPEWESEGFDRESFDLPGAQNALVTAVADANPNTVVVLTAGSPVNLPWLERVGALLLAWYAGEEVGHAVVDVLTGVREPAGRLPFTYPQRLEDTPAFLNYPGEFGRLRYCEGLFIGYRWYDARQIEPLFPFGFGLGYTRFAYRDLVLDRESLGGEEKLTVTCTVENVGERAGSEVVQLYLAFPPGTVRRPLKELRGFRRVHLMPQGSASVSFTVSPRDLAYFDEAAREWVAPPGEYEIMIGAHARDIRLRGRFLLREELRWDAGGRFRDV
modifications: bacterium
B3: 845 (protein, listed as Kitasatosporia setae)
chain: MTQLSMPSSLTTPASGTDHRVLDLERKARLVSGGDTFRTSPEPALGLFPIVCSDGPVGVRGERWDEADTALLLPCATALAASWDEELVARMGGLLAAEARRKGVHVVLAPTLNLHRSPLGGRNFECFSEDPLLTARIGAAYIGGVQALGVAATAKHYVANDSETERLTVDARVDERTLREVYLAPFEAAVRAGVWAVMSAYNRVNGTSMVEHPLLAEPLKGEWGFDGLVVSDWGSVREADGPGAAACDLSMPGPNPAWGPALAAAVRAGRVPAAALDDKVERLLRLAGRVGAFDPPPAGRAPVPADPATRGALRAAAVAGTVLLHNPDRLLPLDEPALRRVAVLGPNAATARVQGGGSASVFPAAPVSPLNGLRAALDPSVEVTHAPGVRTELRPTPLAAADCVLPDGSGPGVLVRYLAADGSPLHTEARATGRVLEPSADVDLTAVRTIEVASRFTAPSAGRWRLGVVGLGALRLEADGAVLLDEYVAPLSDDPTYLHVAPSFRQVELELAAGQGVDLLARRTVEPEHGRVLVLAADRPAAELEREFAHAVELAAAADVAVVVVGTTDEHESEGFDRAGLRLPGRQDELVEAVAAVNPRTVVVVNTGSPVLLPWRERVGAVLTCWFPGQEGGGALAEVLLGRAEPGGRLPTTWPDAEADCPVYATAPSGGRLAYAEGPHLGHRGWLRAGRTPAYWFGHGLGWGEWCYLALGEPSAPAADGSRTVRVALRNDGPRRSRETVQLYLSRPDSELDRPVRWLAGFGAVEAGPGERVEVELRLPQRALQHWSVEDRAWRTEPGTFVLHVGPHSGELPLAAALPVGA
B4: 871 (protein, listed as Dactylellina haptotyla)
chain: MLDESVSREIEETLAQLTLEEKISLLAGKDMWRTVPIPDKQVPSIKTSDGPSGARGDSFTGGTKAAFFPSGISMGATFNPELAYEVGQFIGDEVKSKSASVLLAPTACCHRSPLGGRNFESYSEDPLLSGKMASAYIRGVQSKNVAATMKHYAANEQETWRLHVDETIDETTLREIYLKPFEIAMREGRPWAVMSAYNIINGEHCDSNSLTLKQVLRGEWKYEGLVMSDWFGCNSMVDSLLAGLDLEMPGPAKVRPVKELVAKAEKDDSIREAVDKAARRVLTLIAKVGKWKDMTPEAPEISREDPETGKLIRRAGGEGVVLLKNDGALPLQPASLKSIAFVGPNAKATVAGGGGSANLNPNYLTQPYETFVKAIKEIDASIEVPYAQGCIIDRWIPPVNAESGLCRSGGPGSEPGWLVEWFRGHDLKGEVVSSSVFKNSDVFLWDGRPEGLNPAEGYSIRFSGQVSVPEDGNYNIALSTITAGNLYVDGELLIDNWDFKERGNLMMNIGSEEVVKTLELKKGQWYNIEVRNASIWPKDSPRDPPMEEIGALGVRLGLAAVYDNNSLIAQATDSVKNSDAVVIVVGLNNEWESESYDRTQTKLPRNQDELIEEIAKVNKNVIVVNQSGAPIDMPWVENPNVKGIIQAWYAGQEAGNVIADVLLGKQNPSGKLPLTFPVKLEDNPSYNYFPGKDKKVEYTEKLMVGYRYYDTDNVKPRFPFGYGLSYSSFKVGKPVLSTTELSEDGSFTATVEVSNTSAVAGAEVIQLYVQRKTSGTSSIKRPIKELKGFKKIHLQPGETKTAEVTVDDKSLGIWSPEAGKWVVEAGDYEVLVGTSSVYDELAAAGTVVAKSAWSWI
B5: 883 (protein, listed as Salinispira pacifica)
chain: MKSIQEIRSSLTLEEKASLCSGKDFWNLKSFESKGVPAIMVADGPHGLRKQMESSADHIGIGGSVPATCFPTASAMASSWDTQLLNEVGNALGEECRQEHVAVLLGPGVNIKRSPLCGRNFEYFSEDPYLGGKLAASLIRGVQSMGVGTSLKHFAANNQERRRMIIDAVVDERALRELYLAGFETAVKESSPKTVMCAYNKLNGAFCSENHRLLSEILKEEWGFEGFVVTDWGAVNDRVAGLNAGLDLEMPASGGYNDNLMVEAVQNGTLSENSLNDAVDRILKVVLETHTALQEEFTYDAAAHHRLAQKAESESAVLLKNDKLFPLNSEDFRTEEKHGSQEHKSPKLALIGSFAKEPRYQGSGSSLINPRQLDSAYDAISRELGGDMQLLYAPGYDPADEEPDSRLIQEAVNTAAAADTVIVFAGLPEISESEGFDREHLSMPRSHNDLISAVAQVNPRTAVVLSNGSPVTMPWLDSVPAVLESYLGGQAWGSAISDIIFGRANPSGKLAETFPLSLQDVPSSAQFPGGSASVVYTDSLYVGYRYFSGTGKPVLFPFGHGLSYTRFSYDGLKITGRGTGRTVQCRITNTGSRDGKEVIQLYVHSESSSVFRPEQELKGFSKVSLAPGEEKTVEFRLDDRSFAYWDPGAGDWMVESGNYEIRIAASSADIRLRETIRIDSTQTPSQWAADLRNRIPEFFSPAPELFHDISPESPFRKLLGRPIPPPHWDTREGFTRNSTLEETTRTFIGRILYKAVMREGSRMMSQDADEKSIAMMQAVIREMPLKNLGMMGGDKISMHTVDSLILLLNGKIIRGLGSLLRRK
B6: 832 (protein, listed as Arthrobotrys oligospora)
chain: MDATTLKEIEETLAQLTLEEKISLLAGKDFWRTVPLPEKQIPSIKVSDGPSGARGDTFSGGQKAAFFPSGILMGATFNPELAYETGALLGEEVKAKSASVLLAPTACCHRSPLGGRNFESYSEDPLLSGKMASGYIRGVQSRGIAATMKHFVANEQETWRLYVDETIDETTLREIYLKPFEIAMREGQPWAIMTAYNIINGVHCDSHPLALKQVLRGEWNYEGLVMSDWFGCNSMVESLLAGLDLEMPGPARKRPIKEFVEAAEKDESIRKAIDDSARRILTLIAKVGKWKDMTPEAPEYSRNDPETGKLIRRAGGEGTVLLKNEGKTLPLQPGSLKKVAFIGPNAKATVAGGGGSASLEPNYLTQPYETFVNAIKEINGDIEVPWVQGCIIDRWVPNIDVEGGFCRVGGPDSEAGLFLEWFRGYEATGEPVATTVFKTSNAFLWDSRPTSISPSEEFSVKFSGQISVPEDGKYNISLSTITASKLYLNGELLIDNWDFKERGNLMMNVGSEEVVKTIELKKGEWYPILVHNSSIWPKDSPRDPPMEEIGALGIRLGVAPVYDNAVLIAEAADAVKDADAVVIVVGLNNEWESESYDRSDTKLPNNQDDLIEEIAKVNQNVIVVNQSGAPVDMPWAENSNVKAIVQAWYAGQEAGHVIADVLLGKQNPSGKLPLTFPIKVQDNPSYFYFPGRDQKVEYTEKLMVGYRYYDTENVETRFPFGYGLSYSTFSIGEPSLSTAELTEGQTFTANIDVSNTSNVAGAEVVQLYVKRPASTSSIKRPVKELKGFKKVHLGTGETATANITVDDKSLGIWSTEAGKWVVEAGDYEVLIGTSSVQDELKPAGKITVKAAWSWI

What was measured:
Assay type in all cases: biochemical, Quillaja saponaria
[1] = Experiment 5-3: screening of additional glucosidases for deglycosylation with QS-18 in treated bark extract (80%) at pH 6 and 35 deg C; settings: TBE 80% (QS-21 approx. 4 g/L), pH 6, 35 deg C; UV HPLC
Method: Experiment 5-1 was repeated, replacing CBE with Treated Bark Extract (TBE) at pH 6. TBE was prepared from CBE by PVPP treatment and concentration, to provide TBE with a QS-21 concentration of approximately 4 g/L. TBE was adjusted to pH 6 by dropwise addition of 2M NaOH with stirring.

[2] = Experiment 5-2: screening of additional glucosidases for deglycosylation with QS-18 in crude bark extract (80%) at pH 6 and 35 deg C; settings: CBE 80%, pH 6, 35 deg C, 18 hours; UV HPLC
Summary of the method: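 Clarified glucosidase lysate (prepared at pH 6) was incubated with pH 6-adjusted crude bark extract at 35 deg C with shaking for 18 hours. Reactions were quenched with MeCN containing 2% AcOH and hexanophenone, then analysed by UV HPLC.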

[3] = Experiment 5-1: screening of additional glucosidases for deglycosylation with purified QS-18 (0.04 mg/ml) at pH 7.5 and 30 deg C; settings: pH 7.5, 30 degrees C, 18 hours, LCMS/MS
Method: The 94 additional genes, together with positive control (DNA encoding SEQ ID No. 262) and negative control, were transformed, expressed, lysed and reacted in the same manner as described above for Experiment 4-1, except the reaction was incubated at 30 degrees C. for 18 hours.
Samples were analysed by LCMS/MS according to the procedure in Experiment 4-1.

| Molecule | Experiment 5-3 % conv [1] [%] | Experiment 5-2 % conv [2] [%] | Experiment 5-1 % conv [3] [%] |
| --- | --- | --- | --- |
| B1 | <0.5 | <0.5 | 7.6 |
| B2 | <0.5 | <0.5 | 9.3 |
| B3 | <0.5 | <0.5 | 9.2 |
| B4 | <0.5 | <0.5 | 7.8 |
| B5 | <0.5 | <0.5 | 7.0 |
| B6 | <0.5 | <0.5 | 9.8 |
